The test has as its target recombinant M. smegmatis RNAP β′ subunit (N-terminal 6xHistidine) (M. smegmatis, UniProt A0QS66 1-1317). Description: co-IP.

B1: purified recombinant MsmTopoI (enzyme, M. smegmatis, UniProt A0R5D9 1-936, looked up)
chain: MAGGDRGSGGTGNVRRLVIVESPTKARKIAGYLGSNYVVESSRGHIRDLPRNAADVPAKFKSEPWARLGVNVDQNFEPLYIVSPEKKSTVTELKGLLKDVDELYLATDGDREGEAIAWHLLETLKPRVPVKRMVFHEITEPAIRNAAENPRDLDIALVDAQETRRILDRLYGYEVSPVLWKKVAPKLSAGRVQSVATRIIVQRERERMAFHSASYWDVTAELDASVSDPSASPPKFTAKLNTVDGRRVATGRDFDSLGQLKRPDEVLVLDEASAGALASGLRGAQLAVTSVEQKPYTRRPYAPFMTSTLQQEAARKLRFSSERTMSIAQRLYENGYITYMRTDSTTLSESAINAARTQARQLYGEEYVHPSPRQYTRKVKNAQEAHEAIRPAGDVFQTPGQLHSALDTDEFRLYELIWQRTVASQMADARGTTLSLRIGGSASSGEQVVFNASGRTITFPGFLKAYVESIDELAGGESDDAESRLPNLTQGQRVDAADLSADGHQTSPPARYTEASLIKALEELGIGRPSTYSSIIKTIQDRGYVQKKGSALVPSWVAFAVVGLLEQHFGRLVDYDFTAAMEDELDEIANGQEQRTNWLNNFYFGGEHGVEGSIARAGGLKQLVGGNLEGIDAREVNSIKVFDDSEGRPVYVRVGRNGPYLERMVDDPDNPGEQKPQRANLKEDLTPDELTPELAEKLFATPQEGRSLGIDPETGHEIVAKDGRFGPYVTEVLPEPEDGGDDGTAGTPAKKGKKPTGPKPRTGSLFRSMDLETVTLEDALKLLSLPRVVGVDPTTNEEITAQNGRYGPYLKRGTDSRSLATEDQIFTITLDEALKIYAEPKRRGRQAASAPPLRELGNDPVSGKPMVIKDGRFGPYVTDGETNASLRKGDDVLTITDERASELLADRRARGPVKKKAPAKKAAKKAPAKKAAAKKA
Regarding B1, the binding result is “binds”.

These data come from article PMC5610943 (Journal of molecular biology, 2017).
